Key:
Format in all cases: cell-based, human
SLAMF7^+ target cells = test: IFN-gamma ELISA and functional assays; details: 4-1BB-containing CAR compared to Luc90-CD828Z (Table C)
Procedure: (§1) One-hundred thousand SLAMF7^+ or SLAMF7-negative target cells were combined with 100,000 CAR-transduced T cells in duplicate wells of a 96 well round bottom plate in 200 µL of AIM V™ medium (Invitrogen) plus 5% human serum. The plates were incubated at 37° C. for 18-20 hours. Following the incubation, ELISAs (enzyme-linked immunosorbent assays) for IFNγ were performed by using standard methods.
CAR-expressing T cells cultured alone produced very low levels of IFNγ. IFNγ production of T cells expressing a CAR with a 4-1BB moiety, Luc90-CD8BBZ, was compared to IFNγ production of T cells expressing Luc90-CD828Z (Table C). […] Low levels of soluble SLAMF7 are found in the serum of some MM patients (see Tai, et al., Blood, 112(4): 1329-1337 (2008)). IFNγ ELISA assays were conducted to determine if adding SLAMF7 to cultures of anti-SLAMF7 CAR T cells plus target cells could block IFNγ release by the CAR T cells (Table D). IFNγ release by the CART cells was used as a measure recognition of the SLAMF7^+ target cells by the CAR T cells. The concentrations of soluble SLAMF7 added to the cultures were similar to those found in the blood of patients. Blocking of SLAMF7^+ target cell recognition by the soluble SLAMF7 was not observed. Also, activation of the anti-SLAMF7 CAR T cells by the soluble SLAMF7 was not observed.

MM.1S = test: IFN-gamma ELISA, CAR T cells with MM.1S target cells; details: Table C
Text: (§2) MM.1S is a SLAMF7^+ multiple myeloma cell line that was obtained from American Type Culture Collection (ATCC). A549 is a BCMA-negative lung cancer cell line (ATCC). TC71 is a BCMA-negative sarcoma cell line. CCRF-CEM, 293T, and A549 are SLAMF7-negative cell lines (ATCC). COL0207, HepG2, U251, Panc10.05, and TC71 are […] that were kind gifts from Dr. Steven Rosenberg, National Cancer Institute. SLAMF7-K562 are K562 cells (ATCC) which were transduced with the gene for full-length SLAMF7. SLAMF7-RPMI are RPMI8226 cells (ATCC) which were transduced with the gene for full-length SLAMF7. NGFR-K562 are K562 cells which were transduced with the gene for low-affinity nerve growth factor (Kochenderfer et al., J. Immunother., 32(7): 689-702 (2009)). All of the human samples mentioned were obtained from patients enrolled in IRB-approved clinical trials at the National Cancer Institute.
as §1
(§3) All values are pg/mL of IFN-gamma. T cells that were either untransduced or transduced with one of the indicated CARs were cultured with target cells overnight, and a standard IFN-gamma ELISA was performed on the culture supernatant.

SLAMF7-RPMI = test: IFN-gamma ELISA, CAR T cells cultured overnight with SLAMF7-RPMI target cells
Text: as §2, §1
(§4) The T cells columns indicate whether T cells were transduced with Luc90-CD828Z, Luc63-CD828Z, or were untransduced. The % CAR^+ in Table B-1 was determined by staining the T cells with Protein L. Except for the % CAR^+ column, all values are pg/mL of IFN-gamma. T cells that were either untransduced or transduced with one of the indicated CARs were cultured with target cells overnight and a standard IFN-gamma ELISA was performed on the culture supernatant.
as §3
(§5) The values in the cells are pg/mL of IFN-gamma. T cells that were either untransduced or transduced with one of the indicated CARs were cultured with target cells overnight, and a standard IFN-gamma ELISA was performed on the culture supernatant. The concentrations of 0, 50, or 200 ng/mL at the top of each column indicates the concentration of soluble SLAMF7 added to all T cell plus target cell overnight cultures in that column. The soluble SLAMF7 was added at the beginning of the overnight culture.

H929 = test: IFN-gamma ELISA, CAR T cells with H929 target cells; details: Table C
Procedure: as §1, §3

SLAMF7-K562 = test: IFN-gamma ELISA, CAR T cells cultured overnight with SLAMF7-K562 target cells
Text: as §2, §1, §4, §3

NGFR-K562 = test: IFN-gamma ELISA, CAR T cells with NGFR-K562 target cells
Text: as §2, §1, §4, §3, §5

T cells only = test: IFN-gamma ELISA, T cells only (no target cells)
Procedure: as §1, §4, §3, §5

CCRF-CEM = test: IFN-gamma ELISA, CAR T cells with CCRF-CEM target cells; details: Table C
Text: as §2, §1, §3

293T = test: IFN-gamma ELISA, CAR T cells with 293T target cells; details: Table B-1; SLAMF7-negative cell line
Text: as §2
(§6) One-hundred thousand SLAMF7^+ or SLAMF7-negative target cells were combined with 100,000 CAR-transduced T cells in duplicate wells of a 96 well round bottom plate in 200 µL of AIM V™ medium (Invitrogen) plus 5% human serum. […]
(§7) The T cells columns indicate whether T cells were transduced with Luc90-CD828Z, Luc63-CD828Z, or were untransduced. The % CAR^+ in Table B-1 was determined by staining the T cells with Protein L. Except for the % CAR^+ column, all values are pg/mL of IFN-gamma. […]

TC71 = test: IFN-gamma ELISA, CAR T cells with TC71 target cells; details: Table B-2
Text: as §2, §6, §7

COLO 205 = test: IFN-gamma ELISA, CAR T cells with COLO 205 target cells; details: Table B-1
Text: as §2, §6, §7

U251 = test: IFN-gamma ELISA, CAR T cells with U251 target cells; details: Table B-2
Text: as §2, §6, §7

Panc 10.05 = test: IFN-gamma ELISA, CAR T cells with Panc 10.05 target cells; details: Table B-2
Text: as §2, §6, §7

HepG2 = test: IFN-gamma ELISA, CAR T cells with HepG2 target cells; details: Table B-1
Text: as §2, §6, §7

A549 = test: IFN-gamma ELISA, CAR T cells with A549 target cells; details: Table B-2; SLAMF7-negative
Text: as §2, §6, §7

[1] = Table D, soluble SLAMF7 added 0 ng/ml
[2] = Table D, soluble SLAMF7 added 50 ng/ml
[3] = Table D, soluble SLAMF7 added 200 ng/ml

## Luc90-CD8BBZ: anti-SLAMF7 CAR (SEQ ID NO: 29): Luc90-CD828Z with the CD28 moiety replaced with a 4-1BB moiety
SLAMF7^+ target cells
  background cytokine release: Generally higher background cytokine release
MM.1S
  IFN-gamma, target cells MM.1S: 5101 pg/mL
SLAMF7-RPMI; Table C, overnight culture
  IFN-gamma, target cells SLAMF7-RPMI8226: 19713 pg/mL
H929
  IFN-gamma, target cells H929: 856 pg/mL
SLAMF7-K562; Table C
  IFN-gamma, target cells SLAMF7-K562: 16697 pg/mL
NGFR-K562; Table C
  IFN-gamma, target cells NGFR-K562: 434 pg/mL
T cells only; Table C
  IFN-gamma, T cells only: 531 pg/mL
CCRF-CEM
  IFN-gamma, target cells CCRF-CEM: 278 pg/mL

B1: Luc63-CD828Z: anti-SLAMF7 CAR (SEQ ID NO: 28): identical to Luc90-CD828Z except scFv from humanized Luc63 antibody (protein)
chain: MALPVTALLLPLALLLHAARPDIQMTQSPSSLSASVGDRVTITCKASQDVGIAVAWYQQKPGKVPKLLIYWASTRHTGVPDRFSGSGSGTDFTLTISSLQPEDVATYYCQQYSSYPYTFGQGTKVEIKGSTSGSGKPGSGEGSTKGEVQLVESGGGLVQPGGSLRLSCAASGFDFSRYWMSWVRQAPGKGLEWIGEINPDSSTINYAPSLKDKFIISRDNAKNSLYLQMNSLRAEDTAVYYCARPDGNYWYFDVWGQGTLVTVSSFVPVFLPAKPTTTPAPRPPTPAPTIASQPLSLRPEACRPAAGGAVHTRGLDFACDIYIWAPLAGTCGVLLLSLVITLYCNHRNRSKRSRLLHSDYMNMTPRRPGPTRKHYQPYAPPRDFAAYRSRVKFSRSADAPAYQQGQNQLYNELNLGRREEYDVLDKRRGRDPEMGGKPRRKNPQEGLYNELQKDKMAEAYSEIGMKGERRRGKGHDGLYQGLSTATKDTYDALHMQALPPR
293T
  IFN-gamma, target cells 293T: 38 pg/mL
TC71
  IFN-gamma, target cells TC71: 113 pg/mL
SLAMF7-RPMI; Table B-1, overnight culture, ELISA on supernatant
  IFN-gamma, target cells SLAMF7-RPMI: 8123 pg/mL
SLAMF7-RPMI; [1]
  IFN-gamma, target cells SLAMF7 RPMI 0 ng/ml: 3495 pg/mL
SLAMF7-RPMI; [2]
  IFN-gamma, target cells SLAMF7 RPMI 50 ng/ml: 2.873 ng/mL
SLAMF7-RPMI; [3]
  IFN-gamma, target cells CD319 RPMI 200 ng/ml: 3083 pg/mL
COLO 205
  IFN-gamma, target cells COLO 205: 29 pg/mL
U251
  IFN-gamma, target cells U251: 46 pg/mL
Panc 10.05
  IFN-gamma, target cells Panc 10.05: 53 pg/mL
HepG2
  IFN-gamma, target cells HepG2: 33 pg/mL
A549
  IFN-gamma, target cells A549: 76 pg/mL
SLAMF7-K562; Table B-1, overnight culture
  IFN-gamma, target cells SLAMF7-K562: 7106 pg/mL
SLAMF7-K562; Table B-2, overnight culture
  IFN-gamma, target cells SLAMF7-K562: 7524 pg/mL
NGFR-K562; Table B-2, SLAMF7-negative
  IFN-gamma, target cells NGFR-K562: 78 pg/mL
NGFR-K562; [1]
  IFN-gamma, target cells NGFR K562 0 ng/ml: 191 pg/mL
NGFR-K562; [2]
  IFN-gamma, target cells NGFR K562 50 ng/ml: 98 pg/mL
NGFR-K562; [3]
  IFN-gamma, target cells NGFR K562 200 ng/ml: 83 pg/mL
T cells only; Table B-2
  IFN-gamma, T cells only: 71 pg/mL
T cells only; Table D, no target cells, soluble SLAMF7 0 ng/ml
  IFN-gamma, T cells 0 ng/ml: 20 pg/mL
T cells only; Table D, no target cells, soluble SLAMF7 50 ng/ml
  IFN-gamma, T cells 50 ng/ml: 22 pg/mL
T cells only; Table D, no target cells, soluble SLAMF7 200 ng/ml
  IFN-gamma, T cells 200 ng/ml: 30 pg/mL
